Measured values taken from paper PMC12881670, “Investigation into ligand selectivity and bias at the formyl peptide receptor family” (The Journal of Pharmacology and Experimental Therapeutics, 2025).
Where no end group is shown, it is not given here. [ ]: non-standard residue; d: D form.

Key:
[1] = target: T1, FLAG-tagged human FPR2 (Hs_FPR2) (human, UniProt P25090 1-351); test: cell-based or functional assay
T1 sequence (looked up): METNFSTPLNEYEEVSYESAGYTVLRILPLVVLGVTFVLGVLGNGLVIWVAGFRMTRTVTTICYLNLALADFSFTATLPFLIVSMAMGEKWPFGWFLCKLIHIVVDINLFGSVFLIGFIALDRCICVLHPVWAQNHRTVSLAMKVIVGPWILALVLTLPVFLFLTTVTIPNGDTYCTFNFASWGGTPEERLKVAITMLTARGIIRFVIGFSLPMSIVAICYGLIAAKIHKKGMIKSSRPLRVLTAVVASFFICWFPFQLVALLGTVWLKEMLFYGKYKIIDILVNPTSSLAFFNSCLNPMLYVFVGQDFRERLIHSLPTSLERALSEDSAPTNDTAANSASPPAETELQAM

[2] = target: T2, FLAG-tagged mouse Fpr1 (Mm_Fpr1) (mouse, UniProt P33766 1-364); test: cell-based or functional assay
T2 sequence (looked up): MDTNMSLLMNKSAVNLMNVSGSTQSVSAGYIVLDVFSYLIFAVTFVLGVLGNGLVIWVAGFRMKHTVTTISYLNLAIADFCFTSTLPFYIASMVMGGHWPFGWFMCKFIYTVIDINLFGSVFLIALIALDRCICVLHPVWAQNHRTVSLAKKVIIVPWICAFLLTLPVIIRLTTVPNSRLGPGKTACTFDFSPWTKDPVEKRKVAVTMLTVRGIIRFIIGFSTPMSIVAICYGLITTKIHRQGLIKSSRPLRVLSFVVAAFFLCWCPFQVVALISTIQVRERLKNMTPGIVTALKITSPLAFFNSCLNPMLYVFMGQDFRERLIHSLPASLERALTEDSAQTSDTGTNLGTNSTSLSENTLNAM

[3] = target: T3, FLAG-tagged human FPR1 (Hs_FPR1) (human, UniProt P21462 1-350); test: cell-based or functional assay
T3 sequence (looked up): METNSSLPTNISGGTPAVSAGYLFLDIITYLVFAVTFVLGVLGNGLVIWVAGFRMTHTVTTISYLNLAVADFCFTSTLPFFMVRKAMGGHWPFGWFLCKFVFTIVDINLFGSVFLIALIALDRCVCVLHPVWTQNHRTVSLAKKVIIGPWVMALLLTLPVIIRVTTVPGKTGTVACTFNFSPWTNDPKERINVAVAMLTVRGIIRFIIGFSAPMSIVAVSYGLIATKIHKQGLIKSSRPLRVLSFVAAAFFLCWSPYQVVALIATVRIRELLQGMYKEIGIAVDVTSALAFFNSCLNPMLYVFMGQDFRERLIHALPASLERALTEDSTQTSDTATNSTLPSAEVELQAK

[4] = target: T4, FLAG-tagged mouse Fpr2 (Mm_Fpr2) (mouse, UniProt O88536 1-351); test: cell-based or functional assay
T4 sequence (looked up): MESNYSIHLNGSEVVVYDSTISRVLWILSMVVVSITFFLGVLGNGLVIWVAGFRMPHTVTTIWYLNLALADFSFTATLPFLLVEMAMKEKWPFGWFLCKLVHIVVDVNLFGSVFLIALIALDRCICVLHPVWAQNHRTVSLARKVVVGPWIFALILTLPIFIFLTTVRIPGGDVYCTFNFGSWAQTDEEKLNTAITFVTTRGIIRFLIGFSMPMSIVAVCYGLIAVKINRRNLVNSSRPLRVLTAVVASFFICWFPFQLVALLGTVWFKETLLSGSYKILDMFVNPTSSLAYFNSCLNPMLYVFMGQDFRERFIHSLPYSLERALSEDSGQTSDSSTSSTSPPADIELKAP

[5] = target: T4, FLAG-tagged mouse Fpr2 (Mm_Fpr2); test: flow cytometry on cells; competition binding: HEK293 cells stably expressing the receptor, lifted in PBS, on ice 90 min with 10 nM K(5/6-FAM)-WKYMVm and increasing unlabeled ligand; mean fluorescence of 5000 cells as % of that without competitor; One site-Fit logIC50

B1: WKYMVm (peptide)
peptide: WKYMV[dM]
notes: the last residue is the D form; the bought peptide is probably also an amide (surmise); source: bought: Tocris
receptor internalization (flow cytometry): Emax (% of 1 μM WKYMVm) [1]: 97.5% | receptor internalization (flow cytometry): Log EC50 (M) [1]: -8 log M | receptor internalization (flow cytometry): Emax (% of 1 μM WKYMVm) [2]: 108% | receptor internalization (flow cytometry): Log EC50 (M) [2]: -8.01 log M | receptor internalization (flow cytometry): Emax (% of 1 μM WKYMVm) [3]: 106% | receptor internalization (flow cytometry): Log EC50 (M) [3]: -7.49 log M | receptor internalization (flow cytometry): Emax (% of 1 μM WKYMVm) [4]: 102% | receptor internalization (flow cytometry): Log EC50 (M) [4]: -7.66 log M | Log IC50 [5]: -7.18 log M | Max Comp (%) [5]: 97.5%
